From PMC8717551 (The Journal of Biological Chemistry, 2021)

T1: Sa2YefM in heterohexamer;Sa2YoeB in heterohexamer (Staphylococcus aureus …, UniProt Q2FVF7;Q2FVF8 1-85;1-88, |)
T1 sequence 1: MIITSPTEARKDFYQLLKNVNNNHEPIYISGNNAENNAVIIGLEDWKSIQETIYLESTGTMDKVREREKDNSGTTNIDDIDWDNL
T1 sequence 2: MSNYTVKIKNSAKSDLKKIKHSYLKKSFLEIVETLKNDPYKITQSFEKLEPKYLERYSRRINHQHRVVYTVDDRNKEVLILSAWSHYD

B1: Sa2YefM antitoxin (natural protein)
chain: T1 sequence 1
B2: promoter mutant1 (core GTAC mutated) (dsDNA)
DNA 1: TTGACTGCATCAAGTGCTGCAGCTAT
DNA 2: ATAGCTGCAGCACTTGATGCAGTCAA
B3: promoter mutant2 (flanking mutated) (dsDNA)
DNA 1: TTGTTGTACAAAAGTTTGTACAATAT
DNA 2: ATATTGTACAAACTTTTGTACAACAA

Legend:
[1] = target: the molecule itself; experiment: crystal structure
[2] = target: T1, Sa2YefM in heterohexamer;Sa2YoeB in …; experiment: ITC

Binder | stoichiometry N [1] | binding result [2]
B1 | 2 | 
B2 |  | no binding
B3 |  | no binding
